One molecule from publication PMC4346921, “Identification of the Specific Interactors of the Human Lariat RNA Debranching Enzyme 1 Protein” (International Journal of Molecular Sciences, 2015) can be followed below.

This assay has as its target T1, GST-hDbr1 (human, UniProt Q9UK59-1 1-544).
T1 construct: human Dbr1, cDNA NM_016216 inserted into BamHI and XhoI sites of GEX-6P-1; also called GST-hDbr1 protein; recombinant Dbr1 protein fused to GST; source: E. coli BL21 (DE3) CodonPlus-RIPL, purified (Glutathione Sepharose)
T1 sequence (looked up): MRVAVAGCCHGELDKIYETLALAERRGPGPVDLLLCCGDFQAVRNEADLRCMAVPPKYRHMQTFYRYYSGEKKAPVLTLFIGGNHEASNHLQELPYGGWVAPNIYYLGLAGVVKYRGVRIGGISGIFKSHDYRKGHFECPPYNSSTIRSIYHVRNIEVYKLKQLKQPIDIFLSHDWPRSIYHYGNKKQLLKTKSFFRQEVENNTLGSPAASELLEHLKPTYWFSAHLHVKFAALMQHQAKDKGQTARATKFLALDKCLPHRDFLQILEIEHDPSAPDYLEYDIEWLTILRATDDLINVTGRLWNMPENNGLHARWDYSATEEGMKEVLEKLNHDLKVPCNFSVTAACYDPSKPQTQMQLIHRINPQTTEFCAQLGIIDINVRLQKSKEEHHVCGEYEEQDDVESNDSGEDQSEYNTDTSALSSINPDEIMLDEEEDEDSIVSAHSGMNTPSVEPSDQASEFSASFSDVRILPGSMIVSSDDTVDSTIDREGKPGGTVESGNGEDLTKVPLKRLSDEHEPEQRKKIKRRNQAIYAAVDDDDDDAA
Kind of assay: pull-down; 2 μg purified His-tagged (T7-His) hDrn1 incubated with 5 μg GST or GST-hDbr1; bound proteins detected by Western blotting with anti-T7 tag antibody. The following applies: both partners purified.

B1: T7-His-hDrn1 (natural protein, human, UniProt Q69YN2-1 1-538, looked up)
chain: MAQKPLRLLACGDVEGKFDILFNRVQAIQKKSGNFDLLLCVGNFFGSTQDAEWEEYKTGIKKAPIQTYVLGANNQETVKYFQDADGCELAENITYLGRKGIFTGSSGLQIVYLSGTESLNEPVPGYSFSPKDVSSLRMMLCTTSQFKGVDILLTSPWPKCVGNFGNSSGEVDTKKCGSALVSSLATGLKPRYHFAALEKTYYERLPYRNHIILQENAQHATRFIALANVGNPEKKKYLYAFSIVPMKLMDAAELVKQPPDVTENPYRKSGQEASIGKQILAPVEESACQFFFDLNEKQGRKRSSTGRDSKSSPHPKQPRKPPQPPGPCWFCLASPEVEKHLVVNIGTHCYLALAKGGLSDDHVLILPIGHYQSVVELSAEVVEEVEKYKATLRRFFKSRGKWCVVFERNYKSHHLQLQVIPVPISCSTTDDIKDAFITQAQEQQIELLEIPEHSDIKQIAQPGAAYFYVELDTGEKLFHRIKKNFPLQFGREVLASEAILNVPDKSDWRQCQISKEDEETLARRFRKDFEPYDFTLDD
notes: Cwf19L1/hDrn1 cDNA (NM_018294), same fragment as in myc-/Flag-hDrn1, between BamHI and XhoI sites of pET-28a; pET-28a with BamHI/XhoI would place the His and T7 tags at the N-terminus (surmised); also called T7- and His-tagged hDrn1 protein; His-tagged hDrn1; source: E. coli BL21 (DE3) CodonPlus-RIPL, purified (Ni-NTA)
On to B1, for which the binding result is recorded as “binds”.
